Experimental data: patent publication US20230002480A1

Tests used:
Assay in all cases: cell-based or functional assay
[1] = biological target: HIV-1 Env of pseudovirus 231965.c01 (HIV-1)
[2] = biological target: HIV-1 Env of pseudovirus 231966.c02 (HIV-1)
[3] = biological target: HIV-1 Env of pseudovirus 235-47 (HIV-1)
[4] = biological target: HIV-1 Env of pseudovirus 246F C1G (HIV-1)
[5] = biological target: HIV-1 Env of pseudovirus 62357_14_D3_4589 (HIV-1)
[6] = biological target: HIV-1 Env of pseudovirus 6244_13_B5_4576 (HIV-1)
[7] = biological target: HIV-1 Env of pseudovirus 6540.v4.c1 (HIV-1)
[8] = biological target: HIV-1 Env of pseudovirus 6952.v1.c20 (HIV-1)
[9] = biological target: HIV-1 Env of pseudovirus 928-28 (HIV-1)
[10] = biological target: HIV-1 Env of pseudovirus BJOX010000.06.2 (HIV-1)
[11] = biological target: HIV-1 Env of pseudovirus BJOX015000.11.5 (HIV-1)
[12] = biological target: HIV-1 Env of pseudovirus CAP210.2.00.E8 (HIV-1)
[13] = biological target: HIV-1 Env of pseudovirus CNE21 (HIV-1)
[14] = biological target: HIV-1 Env of pseudovirus CNE30 (HIV-1)
[15] = biological target: HIV-1 Env of pseudovirus CNE52 (HIV-1)
[16] = biological target: HIV-1 Env of pseudovirus CNE8 (HIV-1)
[17] = biological target: HIV-1 Env of pseudovirus Ce1172_H1 (HIV-1)
[18] = biological target: HIV-1 Env of pseudovirus Ce1176_A3 (HIV-1)
[19] = biological target: HIV-1 Env of pseudovirus Du156.12 (HIV-1)
[20] = biological target: HIV-1 Env of pseudovirus Du422.1 (HIV-1)
[21] = biological target: HIV-1 Env of pseudovirus HIV-0013095-2.11 (HIV-1)
[22] = biological target: HIV-1 Env of pseudovirus PVO.4 (HIV-1)
[23] = biological target: HIV-1 Env of pseudovirus R3265.c06 (HIV-1)
[24] = biological target: HIV-1 Env of pseudovirus REJO4541.67 (HIV-1)
[25] = biological target: HIV-1 Env of pseudovirus RHPA4259.7 (HIV-1)
[26] = biological target: HIV-1 Env of pseudovirus T257-31 (HIV-1)
[27] = biological target: HIV-1 Env of pseudovirus T278-50 (HIV-1)
[28] = biological target: HIV-1 Env of pseudovirus THRO4156.18 (HIV-1)
[29] = biological target: HIV-1 Env of pseudovirus WITO4160.33 (HIV-1)
[30] = biological target: HIV-1 Env of pseudovirus X1632_S2_B10 (HIV-1)
[31] = biological target: HIV-1 Env of pseudovirus ZM135M.PL10a (HIV-1)
[32] = biological target: HIV-1 Env of pseudovirus ZM197M.PB7 (HIV-1)
[33] = biological target: HIV-1 Env of pseudovirus ZM247v1(Rev-) (HIV-1)

B1: N49P22 (antibody, V domains shown)
V domain 1: HIQLLQSGPQVKKSGDTVRISCETSGYNFVDSRIHWVRQTPEKRLRWMGWINPLQGGVNYAPEFQGRIRMTRDTFIDTVYVDLSGLTPADTAYYYCARGIDGKSYPFHFWGHGTRVTVFS
V domain 2: RFALTQPASVSGSPGQTITITCAGGSVSWFHFPPGKTPRLIIYESSKRPSGVSPRFSGSQSGSTASLIISGLQSDDEGTYFCSILEFFGRGTLVTVLS
With B1 the IC50 [1] was 2.04 µg/mL, the IC80 [1] was 35.2 µg/mL and the MPI [1] was 83. The IC50 [2] was 3.35 µg/mL, the IC80 [2] was > 50 µg/mL and the MPI [2] was 69. It also gave an IC50 [3] of 0.037 µg/mL, an IC80 [3] of 0.373 µg/mL and an MPI [3] of 99. The IC50 [4] was > 50 µg/mL, the IC80 [4] was > 50 µg/mL and the MPI [4] was 10. For the same binder, the IC50 [5] was > 50 µg/mL, the IC80 [5] was > 50 µg/mL and the MPI [5] was 13. For the same binder, the IC50 [6] was 0.565 µg/mL, the IC80 [6] was 2.48 µg/mL and the MPI [6] was 97. The IC50 [7] was > 50 µg/mL, the IC80 [7] was > 50 µg/mL and the MPI [7] was 29. For the same binder, the IC50 [8] was 33.2 µg/mL, the IC80 [8] was > 50 µg/mL and the MPI [8] was 56. For the same binder, the IC50 [9] was > 50 µg/mL, the IC80 [9] was > 50 µg/mL and the MPI [9] was 32. For the same binder, the IC50 [10] was > 50 µg/mL, the IC80 [10] was > 50 µg/mL and the MPI [10] was 0. It also gave an IC50 [11] of 1.26 µg/mL, an IC80 [11] of 10.8 µg/mL and an MPI [11] of 89. The IC50 [12] was > 50 µg/mL, the IC80 [12] was > 50 µg/mL and the MPI [12] was 6. For the same binder, the IC50 [13] was > 50 µg/mL, the IC80 [13] was > 50 µg/mL and the MPI [13] was 0. For the same binder, the IC50 [14] was > 50 µg/mL, the IC80 [14] was > 50 µg/mL and the MPI [14] was 30. It also gave an IC50 [15] of 1.7 µg/mL, an IC80 [15] of 10 µg/mL and an MPI [15] of 91. It also gave an IC50 [16] of 5.35 µg/mL, an IC80 [16] of 40.4 µg/mL and an MPI [16] of 86. The IC50 [17] was > 50 µg/mL, the IC80 [17] was > 50 µg/mL and the MPI [17] was 0. The IC50 [18] was > 50 µg/mL, the IC80 [18] was > 50 µg/mL and the MPI [18] was 23. For the same binder, the IC50 [19] was > 50 µg/mL, the IC80 [19] was > 50 µg/mL and the MPI [19] was 4. For the same binder, the IC50 [20] was > 50 µg/mL, the IC80 [20] was > 50 µg/mL and the MPI [20] was 4. For the same binder, the IC50 [21] was > 50 µg/mL, the IC80 [21] was > 50 µg/mL and the MPI [21] was 9. For the same binder, the IC50 [22] was 0.433 µg/mL, the IC80 [22] was 1.49 µg/mL and the MPI [22] was 100. For the same binder, the IC50 [23] was 3.58 µg/mL, the IC80 [23] was > 50 µg/mL and the MPI [23] was 67. The IC50 [24] was 0.792 µg/mL, the IC80 [24] was 12.1 µg/mL and the MPI [24] was 84. For the same binder, the IC50 [25] was 0.637 µg/mL, the IC80 [25] was 5.6 µg/mL and the MPI [25] was 92. The IC50 [26] was > 50 µg/mL, the IC80 [26] was > 50 µg/mL and the MPI [26] was 43. The IC50 [27] was > 50 µg/mL, the IC80 [27] was > 50 µg/mL and the MPI [27] was 25. The IC50 [28] was > 50 µg/mL, the IC80 [28] was > 50 µg/mL and the MPI [28] was 32. The IC50 [29] was 4.86 µg/mL, the IC80 [29] was > 50 µg/mL and the MPI [29] was 74. The IC50 [30] was > 50 µg/mL, the IC80 [30] was > 50 µg/mL and the MPI [30] was 0. For the same binder, the IC50 [31] was > 50 µg/mL, the IC80 [31] was > 50 µg/mL and the MPI [31] was 27. It also gave an IC50 [32] of 2.58 µg/mL, an IC80 [32] of 25.1 µg/mL and an MPI [32] of 84. The IC50 [33] was > 50 µg/mL, the IC80 [33] was > 50 µg/mL and the MPI [33] was 11.

B2: N49P23 (antibody, V domains shown)
VH: QVRLVQSGAGARKTGASMKLSCSTSGYTFTTHHGHFINWVRQARGQGLEWMGWMNPMTGQMNIEGKFQGRVTLTRDIYSDTAYMEMTRLTTGDTGTYYCARGDFGQNYPFHYWGQGSLVIVSS
VL: LSALTQPASVSGSPGQSVTISCSGTNRYLVSWYQQHPDKAPKLIIYDDNKRPSGISDRFSASRPDDTASLTISGLQTGDEATYWCASYERFGGGTRLTVLS
B2 was tested, and the IC50 [1] was > 50 µg/mL, the IC80 [1] was > 50 µg/mL and the MPI [1] was 35. The IC50 [2] was 0.035 µg/mL, the IC80 [2] was 0.158 µg/mL and the MPI [2] was 100. For the same binder, the IC50 [3] was 0.085 µg/mL, the IC80 [3] was 0.749 µg/mL and the MPI [3] was 90. The IC50 [4] was > 50 µg/mL, the IC80 [4] was > 50 µg/mL and the MPI [4] was 11. For the same binder, the IC50 [5] was 0.057 µg/mL, the IC80 [5] was 0.76 µg/mL and the MPI [5] was 95. It also gave an IC50 [6] of 0.151 µg/mL, an IC80 [6] of 0.57 µg/mL and an MPI [6] of 100. For the same binder, the IC50 [7] was > 50 µg/mL, the IC80 [7] was > 50 µg/mL and the MPI [7] was 29. For the same binder, the IC50 [8] was 0.007 µg/mL, the IC80 [8] was 0.023 µg/mL and the MPI [8] was 100. It also gave an IC50 [9] of 0.021 µg/mL, an IC80 [9] of 0.122 µg/mL and an MPI [9] of 100. The IC50 [10] was 0.284 µg/mL, the IC80 [10] was 2.08 µg/mL and the MPI [10] was 100. For the same binder, the IC50 [11] was > 50 µg/mL, the IC80 [11] was > 50 µg/mL and the MPI [11] was 0. The IC50 [12] was > 50 µg/mL, the IC80 [12] was > 50 µg/mL and the MPI [12] was 2. For the same binder, the IC50 [13] was > 50 µg/mL, the IC80 [13] was > 50 µg/mL and the MPI [13] was 0. It also gave an IC50 [14] of 0.143 µg/mL, an IC80 [14] of 0.68 µg/mL and an MPI [14] of 100. The IC50 [15] was 0.014 µg/mL, the IC80 [15] was 0.051 µg/mL and the MPI [15] was 100. The IC50 [16] was 6.35 µg/mL, the IC80 [16] was 47.3 µg/mL and the MPI [16] was 81. The IC50 [17] was > 50 µg/mL, the IC80 [17] was > 50 µg/mL and the MPI [17] was 0. For the same binder, the IC50 [18] was 0.297 µg/mL, the IC80 [18] was 1.38 µg/mL and the MPI [18] was 100. For the same binder, the IC50 [19] was > 50 µg/mL, the IC80 [19] was > 50 µg/mL and the MPI [19] was 0. The IC50 [20] was > 50 µg/mL, the IC80 [20] was > 50 µg/mL and the MPI [20] was 4. It also gave an IC50 [21] of 0.114 µg/mL, an IC80 [21] of 0.899 µg/mL and an MPI [21] of 96. For the same binder, the IC50 [22] was 0.087 µg/mL, the IC80 [22] was 0.43 µg/mL and the MPI [22] was 100. The IC50 [23] was > 50 µg/mL, the IC80 [23] was > 50 µg/mL and the MPI [23] was 0. The IC50 [24] was 0.008 µg/mL, the IC80 [24] was 0.05 µg/mL and the MPI [24] was 100. For the same binder, the IC50 [25] was 0.01 µg/mL, the IC80 [25] was 0.04 µg/mL and the MPI [25] was 100. The IC50 [26] was 0.178 µg/mL, the IC80 [26] was 1.17 µg/mL and the MPI [26] was 100. The IC50 [27] was > 50 µg/mL, the IC80 [27] was > 50 µg/mL and the MPI [27] was 22. It also gave an IC50 [28] of 1.98 µg/mL, an IC80 [28] of 10.7 µg/mL and an MPI [28] of 97. It also gave an IC50 [29] of 0.045 µg/mL, an IC80 [29] of 0.205 µg/mL and an MPI [29] of 100. The IC50 [30] was 0.13 µg/mL, the IC80 [30] was > 50 µg/mL and the MPI [30] was 62. The IC50 [31] was > 50 µg/mL, the IC80 [31] was > 50 µg/mL and the MPI [31] was 36. The IC50 [32] was 0.1 µg/mL, the IC80 [32] was 0.385 µg/mL and the MPI [32] was 100. For the same binder, the IC50 [33] was > 50 µg/mL, the IC80 [33] was > 50 µg/mL and the MPI [33] was 24.
